We go through 17 sequences from the supplement of paper PMC12764529.

Series [1] in a line: folding stability dG unfold from trypsin proteolysis; higher = more stable. In short, it runs like this: (§1)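 Mini-proteins designed to be under 80 residues and free of cysteine were carried in a PA-tagged cDNA display construct and digested with trypsin and with chymotrypsin. Each protease was applied at 11 threefold-diluted concentrations, alongside a no-protease condition, before sequencing. K50 came from Bayesian fitting of the sequencing counts, and unfolding free energy was obtained by comparing it with a sequence-predicted unfolded-state K50 and a shared folded-state K50, for each protease separately or for both together. Designs were retained only if their AlphaFold2 dimer inter-PAE exceeded 15.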

The nature of series [2]: folding stability dG unfold from chymotrypsin proteolysis; higher = more stable. An outline of the steps: as §1
A short description of series [3]: folding stability dG unfold (combined trypsin and chymotrypsin); higher = more stable. An outline of the steps:
as §1

± gives the half width of the 95% confidence interval.

Turning to “SAGGMKLKPVKEGEEIEIELEIVDKETKKVYKVKAKITVVKDKETKEYYVKIEIENPETGEKYTFLLKSAGG [r13_262_TrROS_Hall]”, the “folding stability dG unfold” value in series [1] turned out to be 2.17 ± 0.13 kcal/mol; in series [2], 2.34 ± 0.12 kcal/mol; in series [3], 2.21 ± 0.36 kcal/mol.
For “SAGGMKLTPEELKGKTIRIRIKVNGKEYEIEAKVVEVDGELYIEVKIINKETKEEKTITIPLDDVEIVSAGG [r13_289_TrROS_Hall]”, the “folding stability dG unfold” value was 2.67 ± 0.072 kcal/mol in series [1], 2.1 ± 0.064 kcal/mol in series [2] and 2.39 ± 0.25 kcal/mol in series [3].
For “SAGGMKLTVEIEYDEETEEVTIRIRNEETGEEIEITLSKEEVEKLLEALEKNPEKSIEEALLEALKESAGGS [r8_484_TrROS_Hall]”, the “folding stability dG unfold” value was 2.58 ± 0.23 kcal/mol in series [1], 2.33 ± 0.11 kcal/mol in series [2] and 2.43 ± 0.25 kcal/mol in series [3].
The corresponding values for “SAGGMKPGAPVEIEFPIPGIPPGRRFRIMIHYPNGKHVEAEYTDNTIKIEIPVPDGDNIHHIYIYFYSAGGS [r16_179_TrROS]” are 3.27 ± 0.084 kcal/mol, 4.33 ± 0.11 kcal/mol and 3.86 ± 0.12 kcal/mol.
For “SAGGMKPGEKTIRLLLKLPPGEELTPEQVEELAKRLAEELREKGYEVEVEVVERDGELYVLVEVRFPESAGG [r13_442_TrROS_Hall]” the same measures were 3.55 ± 0.1 kcal/mol, 4.275 ± 0.034 kcal/mol and 4.1 ± 0.044 kcal/mol.
Regarding “SAGGMKPGETWRIRTPGKTITIEVKDGKITVTVEENGKKKTIVVEAETEEEALEALRSIPGLEIEKVSAGGS [r16_583_TrROS_Hall]”, the “folding stability dG unfold” value in series [1] was 1.73 ± 0.05 kcal/mol; in series [2], 1.32 ± 0.13 kcal/mol; in series [3], 1.61 ± 0.16 kcal/mol.
On to “SAGGMKSETIPLTTPEGVPFEVTITTENGKVTVTITPLDPSAPEEVVEAVRAAVEARAAAAGKTVTLVSAGG [r13_774_JUSTAS]”, for which the “folding stability dG unfold” value in series [1] was found to be 1.47 ± 0.046 kcal/mol; in series [2], 1.37 ± 0.04 kcal/mol; in series [3], 1.42 ± 0.07 kcal/mol.
For “SAGGMKTFTLENPPLAPPDRPLGGSTLKLPDGTVLVRINLPSGETILLPSYEELEKLKASGEPVSVTASSAG [r5_42_JUSTAS]” the same measures were 0.285 ± 0.055 kcal/mol, 0.254 ± 0.15 kcal/mol and 0.348 ± 0.12 kcal/mol.
For “SAGGMKTIEITIKTEDGYTIKIKITEKDGKLYIEIEIEDPNMSEEQREKIKKEIEELAKKLNIKVEIPSAGG [r13_774_TrROS_Hall]” the same measures were 3.48 ± 0.31 kcal/mol, 2.8 ± 0.27 kcal/mol and 3.14 ± 0.42 kcal/mol.
“SAGGMKTLKIKIKVPEDEEKAEELAKKLEELFGLKVEVEKKDGELTITVEVSEEVRELLKELGVEIEPSAGG [r13_156_TrROS_Hall]”: the figures for the “folding stability dG unfold” value in series [1], in series [2] and in series [3] were 2.58 ± 0.16 kcal/mol, 4.15 ± 0.089 kcal/mol and 3.79 ± 0.16 kcal/mol, respectively.
For “SAGGMKTSAEELVERLKKELEAKGLKPKEVKKLPDGSLLVEFEEDVVVYIDAKTGTVTVLTPEEYEKLSAGG [r13_717_JUSTAS]” the same measures were 1.7 ± 0.12 kcal/mol, 2.68 ± 0.05 kcal/mol and 2.4 ± 0.14 kcal/mol.
For “SAGGMKTVNLTYTRYLPDKTLEEAKELAKKDLESRGLKILSLPVSREPGAGVVTVSATVEVAPPSLLSAGGS [r16_287_JUSTAS]”, the “folding stability dG unfold” value is 3.67 ± 0.12 kcal/mol in series [1], 3.99 ± 0.1 kcal/mol in series [2] and 3.82 ± 0.27 kcal/mol in series [3].
For “SAGGMKTYEYELELEGGGRLRIKITEDPNNPVYTVTFYSPEGKKLKTITIPANSIEEALKEAIELLKSAGGS [r16_158_JUSTAS]” the same measures were 4.6 ± 0.29 kcal/mol, 4.79 ± 0.12 kcal/mol and 4.73 ± 0.18 kcal/mol.
Consider “SAGGMKVDPKTNITTIEFPSSNLPELKEAIEKTGEKPVVVILKDPNSDREVRITLTKEEALKYLEKKSAGGS [r16_797_JUSTAS]”, for which the “folding stability dG unfold” value in series [1] is 0.209 ± 0.14 kcal/mol; in series [2], 0.71 ± 0.1 kcal/mol; in series [3] it was 0.565 ± 0.18 kcal/mol.
As for “SAGGMKVEKNTIYIEVEKDMSAEEVAKKIAEELKKKGLKVEIKVEKKEDGTKVIRIKVDGKEIEIYASAGGS [r16_771_TrROS_Hall]”, the “folding stability dG unfold” value in series [1] stood at 1.84 ± 0.094 kcal/mol; in series [2] it was 1.13 ± 0.18 kcal/mol; in series [3], 1.51 ± 0.3 kcal/mol.
With “SAGGMKVEVEKDPIKDGTTITVETGLDPEEVRAFLEELLGPPLEDVTFETAPDGTLVVTARVPPDVGSAGGS [r16_605_JUSTAS]”, the “folding stability dG unfold” value is 0.627 ± 0.054 kcal/mol in series [1], 0.564 ± 0.048 kcal/mol in series [2] and 0.816 ± 0.12 kcal/mol in series [3].
For “SAGGMKVIEVEMTADEVKALVKELAEKDDLKIYIYVDGKKIELTVDEIKKIPPENQKVTIIIEKKKESAGGS [r16_628_TrROS_Hall]” the same measures were 2.95 ± 0.22 kcal/mol, 3.11 ± 0.14 kcal/mol and 3.07 ± 0.28 kcal/mol.
